According to US20050287608A1:
Each block holds one binder with its values, some of them ahead of it.

Experiments:
[1] = molecular target: ubiquitinated proteins of yeast cells; experiment: Flag purification from yeast cells, anti-Ub immunoblot
[2] = molecular target: ubiquitinated proteins of yeast cells; experiment: Flag-Rad23 precipitation from yeast extracts, anti-Ub immunoblot, adjusted for the amount of Flag-Rad23 precipitated

- decrease of binding, against Flag-Rad23 [1]: 20%
B1: Flag-rad23^uba2 (yeast Rad23 L392A, amino-terminal Flag epitope) (protein, yeast (Saccharomyces cerevisiae), UniProt P32628 1-398, looked up, not shown: small tags and cut ends)
chain: MVSLTFKNFKKEKVPLDLEPSNTILETKTKLAQSISCEESQIKLIYSGKVLQDSKTVSECGLKDGDQVVFMVSQKKSTKTKVTEPPIAPESATTPGRENSTEASPSTDASAAPAATAPEGSQPQEEQTATTERTESASTPGFVVGTERNETIERIMEMGYQREEVERALRAAFNNPDRAVEYLLMGIPENLRQPEPQQQTAAAAEQPSTAATTAEQPAEDDLFAQAAQGGNASSGALGTTGGATDAAQGGPPGSIGLTVEDLLSLRQVVSGNPEALAPLLENISARYPQLREHIMANPEVFVSMLLEAVGDNMQDVMEGADDMVEGEDIEVTGEAAAAGLGQGEGEGSFQVDYTPEDDQAISRLCELGFERDLVIQVYFACDKNEEAAANIAFSDHAD

- interaction remaining, compared to the wildtype protein [1]: 1%
B2: Flag-rad23^uba1uba2 (yeast Rad23 with mutations in both UBA domains, amino-terminal Flag epitope) (protein, yeast (Saccharomyces cerevisiae), UniProt P32628 1-398, looked up, not shown: small tags and cut ends)
chain: MVSLTFKNFKKEKVPLDLEPSNTILETKTKLAQSISCEESQIKLIYSGKVLQDSKTVSECGLKDGDQVVFMVSQKKSTKTKVTEPPIAPESATTPGRENSTEASPSTDASAAPAATAPEGSQPQEEQTATTERTESASTPGFVVGTERNETIERIMEMGYQREEVERALRAAFNNPDRAVEYALMGIPENLRQPEPQQQTAAAAEQPSTAATTAEQPAEDDLFAQAAQGGNASSGALGTTGGATDAAQGGPPGSIGLTVEDLLSLRQVVSGNPEALAPLLENISARYPQLREHIMANPEVFVSMLLEAVGDNMQDVMEGADDMVEGEDIEVTGEAAAAGLGQGEGEGSFQVDYTPEDDQAISRLCELGFERDLVIQVYFACDKNEEAAANIAFSDHAD

- fold increase of the interaction after treatment with 4-NQO, against untreated cells [2]: 2 fold
B3: Flag-Rad23 (yeast Rad23 with an amino-terminal Flag epitope) (protein, yeast (Saccharomyces cerevisiae), UniProt P32628 1-398, looked up, not shown: small tags and cut ends)
chain: MVSLTFKNFKKEKVPLDLEPSNTILETKTKLAQSISCEESQIKLIYSGKVLQDSKTVSECGLKDGDQVVFMVSQKKSTKTKVTEPPIAPESATTPGRENSTEASPSTDASAAPAATAPEGSQPQEEQTATTERTESASTPGFVVGTERNETIERIMEMGYQREEVERALRAAFNNPDRAVEYLLMGIPENLRQPEPQQQTAAAAEQPSTAATTAEQPAEDDLFAQAAQGGNASSGALGTTGGATDAAQGGPPGSIGLTVEDLLSLRQVVSGNPEALAPLLENISARYPQLREHIMANPEVFVSMLLEAVGDNMQDVMEGADDMVEGEDIEVTGEAAAAGLGQGEGEGSFQVDYTPEDDQAISRLCELGFERDLVIQVYFACDKNEEAAANILFSDHAD
